In article PMC12751073:

Columns and labels:
[1] = biological target: FLAG-tagged full-length human CHK2, wildtype (immunoprecipitated) (human) (UniProt O96017)
[2] = biological target: FLAG-tagged full-length human CHK2, wildtype (immunoprecipitated) (human) (UniProt O96017); remark: listed apart in the source
[3] = biological target: FLAG-tagged full-length human CHK2 K245A (immunoprecipitated) (human) (UniProt O96017)

## Calmodulin (recombinant, produced in-house) (from UniProt P0DP23 1-149) (natural protein)
[1]
  radiometric kinase assay (CHKtide, [^32P]-γ-ATP) of immunoprecipitated full-length CHK2 with or without CaCl2 and CaM: 10 fold
[2]
  IC50 of CaM (0-200 μM) for the kinase activity of immunoprecipitated full-length CHK2, radiometric assay, 1 mM CaCl2: 8.09 µM
[3]
  fold decrease in radiometric kinase assay of immunoprecipitated full-length CHK2 mutant with or without CaCl2 and CaM: 10 fold
